Data taken from patent US20220135652A1 (FERRING B V, published 2022).

Biological target: T1, IL-6/sIL-6R complex (human, UniProt P05231 30-212; P08887 20-355, limits assumed)
T1 construct: Complex of IL-6 and soluble IL-6R; also called IL-6/sIL-6R trans-signalling complex
Test: method not stated; value given in Example 4 and used to calculate occupancy

Kd: 0.13 nM
B1: Peptide 1 (the polypeptide of SEQ ID NO: 1 in its active dimerized form) (Fc fusion)
chain: ELLDPCGYISPESPVVQLHSNFTAVCVLKEKCMDYFHVNANYIVWKTNHFTIPKEQYTIINRTASSVTFTDIASLNIQLTCNILTFGQLEQNVYGITIISGLPPEKPKNLSCIVNEGKKMRCEWDGGRETHLETNFTLKSEWATHKFADCKAKRDTPTSCTVDYSTVYFVNIEVWVEAENALGKVTSDHINFDPVYKVKPNPPHNLSVINSEELSSILKLTWTNPSIKSVIILKYNIQYRTKDASTWSQIPPEDTASTRSSFTVQDLKPFTEYVFRIRCMKEDGKGYWSDWSEEASGITYEDRPSKAPSFWYKIDPSHTQGYRTVQLVWKTLPPFEANGKILDYEVTLTRWKSHLQNYTVNATKLTVNLTNDRYLATLTVRNLVGKSDAAVLTIPACDFQATHPVMDLKAFPKDNMLWVEWTTPRESVKKYILEWCVLSDKAPCITDWQQEDGTVHRTYLRGNLAESKCYLITVTPVYADGPGSPESIKAYLKQAPPSKGPTVRTKKVGKNEAVLEWDQLPVDVQNGFIRNYTIFYRTIIGNETAVNVDSSHTEYTLSSLTSDTLYMVRMAAYTDEGGKDGPEFTFTTPKFAQGEDKTHTCPPCPAPEAEGAPSVFLFPPKPKDTLMISRTPEVTCVVVDVSHEDPEVKFNWYVDGVEVHNAKTKPREEQYNSTYRVVSVLTVLHQDWLNGKEYKCKVSNKALPAPIEKTISKAKGQPREPQVYTLPPSREEMTKNQVSLTCLVKGFYPSDIAVEWESNGQPENNYKTTPPVLDSDGSFFLYSKLTVDKSRWQQGNVFSCSVMHEALHNHYTQKSLSLSPGK
notes: Produced in CHO/dhfr- cells; 10 N-glycosylation sites per chain; also called gp130-Fc fusion dimer
